Measured values taken from the nanobody polyreactivity screen of Harvey et al. (2022).

Test: yeast display, Sf9 membrane polyspecificity reagent, FACS + sequencing; frameworks hold sequencing errors
Outline: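 Synthetic nanobody libraries on Saccharomyces cerevisiae BJ5465 were galactose-induced for 36–48 hours, stained 1 hour at 4 °C with 10% biotinylated, detergent-solubilized Sf9 membrane reagent and enriched on streptavidin microbeads. FACS then separated cells into low and high (top ~1%) gates by anti-HA (expression) and streptavidin (reagent binding) fluorescence. Genes were colony-PCR amplified, MiSeq 2 × 250 sequenced and CDR-length filtered. A clone's polyreactivity label is that of its gate of origin.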

Sequence	polyreactivity (PSR sort gate)
QVQLVESGGGLVQAGGSLRLSCAASGSTFVGYTMGWYRQAPGKERELVASITSDGSTNYADSVKGRFTISRDNAKNTVYLQMNSLKPEDTAVYYCNADIRRHGGYAHEYWGQGTQVTVSS	low polyreactivity
QVQLVESGGGLVQAGGSLRLSCAASGSTFVINAMGWYRQAPGKERELVAAIDFSGGSTYYADSVKGRFTISRDNAKNTVYLQMNSLKPEDTAVYYCAAVLSSYGYGGYTWYDYEYWGKGTQVTVSS	high polyreactivity
QVQLVESGGGLVQAGGSLRLSCAASGSTFVIYGMGWYRQAPGKERELVADITWIGGSTYYADSVKGRFTISRDNAKNTVYLQMNSLKPEDTAVYYCAADAAYLYLYNWYDTEDDYWGEGTQVTVSS	low polyreactivity
QVQLVESGGGLVQAGGSLRLSCAASGSTFVKNAMGWYRQAPGKERELVAAIRSSGGSTYYADSVKGRFTISRDNAKNTVYLQMNSLKPEDTAVYYCNKVLQASRSKYYYWGQGTQVTVSS	high polyreactivity
QVQLVESGGGLVQAGGSLRLSCAASGSTFVKNAMGWYRQAPGKERELVAAISGRGGSTYYADSVKGRFTISRDNAKNTVYLQMNSLKPEDTAVYYCNKAYSVAYTYNYWGQGTQVTVSS	high polyreactivity
QVQLVESGGGLVQAGGSLRLSCAASGSTFVKNAMGWYRQAPGKERELVAAISYRGGRTYYADSVKGRYTISRDNAKNTVYLQMNSLKPEDTAVYYCNARYRTPSFIRMGYWGQGTQVTVSS	high polyreactivity
QVQLVESGGGLVQAGGSLRLSCAASGSTFVKYAMGWYRQAPGKERELVAAISWSGGRTYYADSVKGRFTISRDNAKNTVYLQMNSLKPEDTAVYYCAARSWYDRYPYYSWGQGTQVTVSS	high polyreactivity
QVQLVESGGGLVQAGGSLRLSCAASGSTFVLYAMGWYRQAPGKERELVAAITWTGGTTNYADSVKGRFTISLDNAKNTDYLQMNILQPEDTAVSYCAAKTNGRYDYWGQGTQVTVSS	low polyreactivity
QVQLVESGGGLVQAGGSLRLSCAASGSTFVNYGMGWYRQAPGKERELVAAITQSGGSTYYADSVKGRFTISRDNAKNTVYLQMNSLKPEDTAVYYCAAEVVRQWHGIGYDYWGQGTQVTVSS	low polyreactivity
QVQLVESGGGLVQAGGSLRLSCAASGSTFVPNAMGWYRQAPGKERELVAAISSVGSTNYADSVKGRFTISRDNAKNTVYLQLNSLKPEDTAVYYCAVRYPWRYFKYGYWGQGTQVTVSS	low polyreactivity
QVQLVESGGGLVQAGGSLRLSCAASGSTFVPNAMGWYRQAPGKERELVAAISSVGSTNYADSVKGRFTISRDNAKNTVYLQMNSLKPEDTAVYYCAVRYPWRYFKYGYWGQGSQVTVSS	low polyreactivity
QVQLVESGGGLVQAGGSLRLSCAASGSTFVPNAMGWYRQAPGKERELVADITSGGITNYADSVKGRFTISRDNAKNTVYLQMISLNPEDTGVYYCAVLYYILAPGYDYWGQGTLVTVSS	low polyreactivity
QVQLVESGGGLVQAGGSLRLSCAASGSTFVPYAIGWYRQAPGTERELVAAISSRGGRTSYADSVKGRFTISRDNAKNTVYLQMKRLKPEDTAVYYCIALYPGRLTDYSRSKMEYWGQGTQVTVSS	high polyreactivity
QVQLVESGGGLVQAGGSLRLSCAASGSTFVPYAMGWYRQAPGKERELVAAITDSGGSTSYADSVKGRFTISRDKAKNSVYLQMNSLKPEDTAVYYCAAQTRAIVQKYPGDDYWGQGTQVTVSS	low polyreactivity
QVQLVESGGGLVQAGGSLRLSCAASGSTFVPYAMGWYRQAPGKERELVAAITTSGGNTYYADSVKGRFTISRDNAKNTVYLQMNSLKPEDTAVYYCAADTYRRFDYWGEGTQVTVSS	low polyreactivity
QVQLVESGGGLVQAGGSLRLSCAASGSTFVPYAMGWYRQAPGKERELVASISWRGGSTSYADSVKGRFTISRDNAKNTVYLQMNSLKPEDTAVYYCAARPRYRYKQDYYYWGQGTQVTVSS	high polyreactivity

Sequence	polyreactivity (PSR sort gate)
QVQLVESGGGLVQAGGSLRLSCAASGSTFVPYVMGWYRQAPGKERELVAAISKSGTSTYYADSVKGRFTISRDNAKNTVYLQMNCLKPEDTAVYYCAAVARRQVPYDYWGQGTQVTVSS	high polyreactivity
QVQLVESGGGLVQAGGSLRLSCAASGSTFVRNAMGWYRQAPGKERELVAGITFGGGSTYYADSVKGRFTISRDIAKNTVYLQMNSLKPEDTAVYYCAADLSYRGATRGDYYWGQGTQVTVSS	low polyreactivity
QVQLVESGGGLVQAGGSLRLSCAASGSTFVRYAMGGYRQAPGKERELVAAISWSGASTYYADSVKGRFTISRDNAKNTVYLQMNSLKPEDTAVYYCAARSRWYDAAGYPKYYYWGQGTQVTVSS	high polyreactivity
QVQLVESGGGLVQAGGSLRLSCAASGSTFVRYAMGWYRQAPGKERELVAAISSNGGSTYYADSVKGRFTISRDNAKNSVYLQMNSLKPEDTAVYYCAKSRVRKYYWGQGTQVTVSS	high polyreactivity
QVQLVESGGGLVQAGGSLRLSCAASGSTFVRYSMGWYRQAPGKERDLVAAITSSGGSTYYADSVKGRFTISRDNAKNSVYFQMNSLKPEDTAVYDFAAARYPYRYIYNYWGQGTQVTVSS	high polyreactivity
QVQLVESGGGLVQAGGSLRLSCAASGSTFVRYVMGWYRQAPGKERELVAAISRRGGSTYYADSVKGRFTISRDNAKNTVYLQMNSLKPEDTAVYYCARTVGYRTLLESDSWGQGTQVTVSS	high polyreactivity
QVQLVESGGGLVQAGGSLRLSCAASGSTFVRYVMGWYRQAPGKQRELVAAISRRGGSTYYADSVEGRFTISRDNAKNTVYLQMNSLKPEDTAVYYCAARGTSRKYYYWGQGTQVTVSS	high polyreactivity
QVQLVESGGGLVQAGGSLRLSCAASGSTFVRYVMGWYRQATGKERELVAAISRRGGSTYYADSVKGRFTISRDNAKNTVYLQMNSLKPEDTAVYYCARTVGYRTLLESDSWGQGTQVTVSS	high polyreactivity
QVQLVESGGGLVQAGGSLRLSCAASGSTFVSSALGWSSQAPGKARELVARIRRSGGSTYYADSVKGRFTISRDNAKNTVYLQMNSLKPEDTAVYDCAAGYSRGQYRYNYWGQGTQVTVSS	high polyreactivity
QVQLVESGGGLVQAGGSLRLSCAASGSTFVSYAMGWYRQAPGKERELVAAISSGGGSTYYADSVKGRFTISRDNAKNTVYLQMNSLKPEDTAVYYCAARGYAYRAQYGYWGQGTQVTVSS	high polyreactivity
QVQLVESGGGLVQAGGSLRLSCAASGSTFVSYAMGWYRQEPGKERELVATISQSGGSTSYADSVKGRFTISRDNAKNTVYFQMNCRKPEDTAVYNCAARLRAPHRRSYNYWGQGTQVTVSS	high polyreactivity
QVQLVESGGGLVQAGGSLRLSCAASGSTFVTNDMGWYRQAPGKERDLVADISWSGGDTYYADSVKGRFTISRDNAKNTVYLQMNSLKPEDTAVYYCAARPDQGLAYSPLPWYNYWGQGTQVTVSS	low polyreactivity
QVQLVESGGGLVQAGGSLRLSCAASGSTFVTNDMGWYRQAPGKESELVAAISSGTSTNYADSVKGRFTISRDNAKNTVYLQMNSLKPEDTAVYYCAADSLKRYDYWGQGTQVTVSS	low polyreactivity
QVQLVESGGGLVQAGGSLRLSCAASGSTFVTYAKGWYRQAPGKERELVAAITSGGSTNYADSVKGRFTISRDNAKNTVYLQMNCLKPEDTEVYYCAARYYGAYGKQPRARYGYWGQGTQVTVSS	high polyreactivity
QVQLVESGGGLVQAGGSLRLSCAASGSTFVVNAMGWYRQAPGKEREFVAAITWNGGSTYADSVKGRFTISRDNAKNTVYLQMNSLKPEDTAVYYCSADLSYWDDFDYWGQGTQVTVSS	low polyreactivity
QVQLVESGGGLVQAGGSLRLSCAASGSTFVVNAMGWYRQAPGKERELVAAITLSTGSTYYADSVKGRFTISRDNAKNTVYLQMNSLKPEDTAVYYCNTEIYVDIISDYGYWGQGTEVTVSS	low polyreactivity
